# According to patent US8357518B2, “Thermostable enzymes for the hydrolysis of mannan-containing polysaccharides” (The Board of Trustees of the University of Illinois, priority 2010, dated 2013):
# B1: Caldanaerobius polysaccharolyticus endo-β-mannanase Man5A truncation mutant Man5A-TM2, SEQ ID NO: 29 (Caldanaerobius polysaccharolyticus) (protein)
# chain: AGTSGDGRFHVVGNKIVDPDGKDFIIKGVNIQGYRSWEKRSVLQDVHLIADVWKFNTVRLNCFIGQNNWGEGTGANNDIDAIIKAFTAKKVVVEIDLHDTTGYPPLSNPPPAPGQPSLDQAIAWFKELAAKYKDNPYVWFNTMNEPGSSTAPLDPQWKVANEEIIKAIRSTGADNIIVVDGWSYANEGIEQNTPTVDEKRSAVLTYGQDLLNADSAKNTIFAFHNYNEGDIQKKVEDYIDRANAKGLYVFMEEYGKDYSDAAKEGVKSGLQAVMNKGAGRIYWNWDGYDLYDLTSGTGRGSGWEINKTDGSKPTNLSWVGDKIWDDNHGITPTFDDQNPKVDLALERLIANNNGFKAGDKVQFTTFLRNSGDLPIGKDSKVVVKFYVDGVQLGDPVEISGGIAVGQRIPVTSPELTVSKTDFTVKAVIDSSSTYADGAEDAVIENNWIEAAFNSTAPSSGYELVVTGIKITPDTVKEGDYVQAQVTVANQGPEATPVTNIIGWFYVNGYYYTLDDAAKSCAEQDNVTLKPGESITLSTKVKYRAAAPFNFSFVLENLYADDQNQSNNSITVNVPVK
# Legend:
# [1] = substrate: O=[N+]([O-])c1ccc(O[C@@H]2O[C@H](CO)[C@@H](O)[C@H](O)[C@@H]2O)cc1; assay: Catalytic efficiency with pNP-linked sugars (Man5A-TM2); assay type: biochemical, Caldanaerobius polysaccharolyticus; conditions: other: Man5A-TM2, pNP substrates, citrate buffer 50 mM, pH 5.5, 65° C., triplicate
# Description: (§1) The plasmid constructs were then introduced into E. coli BL-21 CodonPlus (DE3) RIL competent cells by heat shock, and grown overnight in lysogeny broth (LB) agar medium supplemented with ampicillin (100 μg/mL) and chloramphenicol (50 μg/mL) at 37° C. After 12 h, single colonies were selected and used to inoculate fresh LB (10 mL) supplemented with the antibiotics above at the same concentrations, followed by culturing with aeration for 8 h at 37° C. The pre-cultures were then inoculated into fresh LB (1 L) supplemented with ampicillin and chloramphenicol and the cultures were incubated at 37° C. with vigorous aeration (225 rpm/min). […] Aliquots of eluted fractions were analyzed by sodium dodecyl sulfate-polyacrylamide gel electrophoresis (SDS-PAGE) and protein bands were visualized by staining with Coomassie brilliant blue G-250. […] The UV absorbances of the protein solutions were recorded at 280 nm using a Nanoprop 1000 from Thermo Scientific (Waltham, Mass.) and the protein concentrations were calculated using the following extinction coefficients: Man5A-TM1, ε280 nm=189 mM^−1 cm^−1; Man5A-TM2, ε280 nm=113 mM^−1 cm^−1; Man5B, ε280 nm=103 mM^−1 cm^−1.
# (§2) Hydrolysis of para-nitrophenyl (pNP) linked sugars. […] The extinction coefficient of pNP at pH 5.5 was determined as 1636 M^−1 cm^−1.
# [2] = substrate: O=[N+]([O-])c1ccc(O[C@@H]2O[C@H](CO)[C@@H](O[C@@H]3O[C@H](CO)[C@@H](O)[C@H](O)[C@H]3O)[C@H](O)[C@H]2O)cc1; assay: as above; assay type: biochemical, Caldanaerobius polysaccharolyticus; conditions: other: Man5A-TM2, pNP substrates, citrate buffer 50 mM, pH 5.5, 65° C., triplicate
# Description: as §1, §2
protein,measurement,setting,value
B1,kcat/Km,[1],(1.1 ± 0.2) × 10^−2 mM^−1 s^−1
same,kcat/Km,[2],(2.5 ± 0.3) × 10^−2 mM^−1 s^−1
